Here are results for 3 molecules from article PMC10278182, “Evaluation of Nanopore Sensor Design Using Electrical and Optical Analyses” (ACS Nano, 2023).

What all share (assay): BLI; ND-BLI: biotinylated nanodiscs (15 nM) with reconstituted nanopores loaded on streptavidin (SAX) sensors; WDR5 in solution, 1 to 18 μM; 300 mM KCl, 20 mM Tris-HCl, 1 mg/mL BSA, 1 mM TCEP, pH 7.5; 24 °C; empty nanodiscs as reference
Conditions in all cases: both partners purified

For test [1], the target named is T1, WD40 repeat protein 5 truncation mutant lacking residues 1-22 (WDR5ΔN) (UniProt P61964 23-334).
Test [2] has as its target T1, WD40 repeat protein 5 truncation mutant …. This is another data set of the same source.
For test [3] the target is unchanged. This is another data set of the same source.

On to MGDRGPEFELGTMLNPHGAARAEVYLRPAPAPA (other) [O(PA)3 nanopore sensor (adaptor O - MLL4Win - (PA)3 tether - tFhuA)], for which, in test [1], the koff came to 0.018 s⁻¹ and the kon is 6000 M⁻¹ s⁻¹. Moreover, binding in test [2] was put at a Kd of 3010 ± 940 nM.

For MGDRGPEFELGTMLNPHGAARAEVYLRGGSGGS (other) [O(GGS)2 nanopore sensor (adaptor O - MLL4Win - (GGS)2 tether - tFhuA)], in test [2], the Kd amounted to 250 ± 50 nM. In addition, in test [3], the koff is 0.0046 s⁻¹ and the kon turned out to be 19000 M⁻¹ s⁻¹.

Turning to MLNPHGAARAEVYLRGGSGGS (other) [(GGS)2 nanopore sensor without the peptide adaptor (MLL4Win - (GGS)2 tether - tFhuA)], the Kd in test [2] amounted to 260 ± 30 nM. For the same molecule, in test [3], the koff worked out at 0.0049 s⁻¹ and the kon worked out at 19000 M⁻¹ s⁻¹.
